In publication PMC8642242:

Target: SARS-CoV-2 stabilized S trimer (HexaPro) (SARS-CoV-2)
Test: negative-stain EM

“SARS-CoV-2 stabilized S trimer (HexaPro) (domain or fragment)” showed a stoichiometry N of 3.
